In patent publication US11332546B2, “Protease inhibitory antibodies and methods of use thereof” (The Regents of The University of California, priority 2019, dated 2022):

What was measured:
[1] = biological target: T1, cdMMP-12 mutant D4 (Homo sapiens, UniProt P39900, A167E/A173P/A252Q/H206S/I245T/K233R/M156E/N119Q/N126H/R135E/T215V/V161I/Y113D/Y132K); test: FRET peptide inhibition assay, cdMMP-12 D4; assay type: biochemical; conditions: cdMMP-12 D4, FRET peptide, 31-500 nM Fab
T1 construct: hexahistidine (C); made in house; host or cells: E. coli BL21, pET32b (cytoplasmic, soluble fraction)
T1 sequence (P39900 106-263 Y113D/N119Q/N126H/Y132K/R135E/M156E/V161I/A167E/A173P/H206S/T215V/K233R/I245T/A252Q): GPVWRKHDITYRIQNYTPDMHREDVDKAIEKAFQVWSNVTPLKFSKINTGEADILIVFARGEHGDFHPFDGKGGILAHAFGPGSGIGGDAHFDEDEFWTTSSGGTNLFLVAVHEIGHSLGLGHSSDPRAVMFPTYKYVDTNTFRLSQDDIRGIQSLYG
Experimental: (§1) FRET peptide inhibition assays In 96-well assay plates (Corning), 60/250/350/10/10/30 nM of (cd)MMP-1/-7/-9/-12 D4/-12 wt/-14 were preincubated with 1 nM-1 μM purified Fabs for 30 min at room temperature then 1 μM substrate M-2350 (Bachem) was added. Generated fluorescent signals (λEx=328 nm, λEm=393 nm) were monitored at 37° C. to measure the initial velocities. To calculate inhibition constants (KIs), data were fit with the equations for slow tight-binding inhibitors. The inhibition type of the Fabs was determined using the initial velocities of cdMMP-12 D4 as a function of substrate concentration (250-2000 nM) at various Fab concentrations (31-500 nM). The values of Vmax and Km were derived from linearization in accordance with the Lineweaver-Burk equation.

[2] = biological target: T2, cdMMP-12 wt (Homo sapiens, UniProt P39900); test: FRET peptide inhibition assay, cdMMP-12 wt; assay type: biochemical; conditions: toward cdMMP-12 wild type; listed as LH6
T2 construct: hexahistidine (C); made in house; host or cells: E. coli BL21 (pET32b, cytoplasmic)
T2 sequence (P39900 106-263): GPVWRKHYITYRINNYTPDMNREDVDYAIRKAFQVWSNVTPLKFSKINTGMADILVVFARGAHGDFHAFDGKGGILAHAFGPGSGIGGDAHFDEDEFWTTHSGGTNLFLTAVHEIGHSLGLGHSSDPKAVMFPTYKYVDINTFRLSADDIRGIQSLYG
Experimental: as §1

[3] = biological target: T2, cdMMP-12 wt; test: Fibronectin proteolysis inhibition, cdMMP-12 wt (western blot); assay type: biochemical
[4] = biological target: T3, MMP-1 (Homo sapiens, UniProt P03956); test: FRET peptide inhibition assay, MMP-1; assay type: biochemical; conditions: listed as LH6
T3 construct: purchased AnaSpec
T3 sequence (P03956 100-469): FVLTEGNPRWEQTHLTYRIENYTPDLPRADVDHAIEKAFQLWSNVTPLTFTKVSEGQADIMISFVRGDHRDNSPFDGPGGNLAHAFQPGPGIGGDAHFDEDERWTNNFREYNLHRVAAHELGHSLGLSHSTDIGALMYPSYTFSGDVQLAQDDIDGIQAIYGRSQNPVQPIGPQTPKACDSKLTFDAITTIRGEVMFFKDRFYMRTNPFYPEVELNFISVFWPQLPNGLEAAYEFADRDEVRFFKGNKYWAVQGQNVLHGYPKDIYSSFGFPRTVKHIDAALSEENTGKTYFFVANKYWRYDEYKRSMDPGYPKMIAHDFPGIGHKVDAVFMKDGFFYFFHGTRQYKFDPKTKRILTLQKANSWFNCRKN
Experimental: as §1

[5] = biological target: T4, MMP-7 (Homo sapiens, UniProt P09237); test: FRET peptide inhibition assay, MMP-7; assay type: biochemical; conditions: listed as LH6
T4 construct: purchased AnaSpec
T4 sequence (P09237 95-267): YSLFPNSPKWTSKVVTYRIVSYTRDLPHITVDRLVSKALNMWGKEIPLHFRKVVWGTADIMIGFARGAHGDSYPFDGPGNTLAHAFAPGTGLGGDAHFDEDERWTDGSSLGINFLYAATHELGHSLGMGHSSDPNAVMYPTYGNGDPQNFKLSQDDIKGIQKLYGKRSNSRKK
Experimental: as §1

[6] = test system: cdMMP-9; test: FRET peptide inhibition assay, cdMMP-9 (Example 2); assay type: biochemical
Sequence of cdMMP-9 (P14780 with tags, fused parts or gaps DEL216-390 limits assumed): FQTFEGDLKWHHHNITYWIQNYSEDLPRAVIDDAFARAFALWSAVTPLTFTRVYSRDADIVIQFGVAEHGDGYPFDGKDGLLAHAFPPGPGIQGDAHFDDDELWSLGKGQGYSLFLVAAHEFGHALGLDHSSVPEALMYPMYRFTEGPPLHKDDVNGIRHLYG
Experimental: as §1

[7] = biological target: cdMMP-9; test: Bio-layer interferometry on cdMMP-9; assay type: binding
[8] = biological target: T1, cdMMP-12 mutant D4; test: Proteolytic stability of Fabs with cdMMP-12 D4; assay type: physicochemical; conditions: 2 μM Fab, 2 μM cdMMP-12 D4, 4 h, 37° C.
Experimental: (§2) Proteolytic stability tests 2 μM purified Fabs were incubated with 2 μM cdMMP-12 wt/D4 in 50 mM HEPES, 150 mM NaCl pH 7.5 at 37° C. for 4 h. Samples were analyzed by using 12% non-reducing SDS-PAGE and stained with Coomassie blue. Densitometric interpretation was conducted using a ChemiDoc imager (Bio-Rad).

[9] = biological target: T2, cdMMP-12 wt; test: Proteolytic stability of Fabs with cdMMP-12 wt; assay type: physicochemical; conditions: 2 μM Fab, 2 μM cdMMP-12 wt, 4 h, 37° C.
Experimental: as §2

[10] = biological target: T5, cdMMP-14 (Homo sapiens, UniProt P50281); test: FRET peptide inhibition assay, cdMMP-14 (Example 2); assay type: biochemical; design: human MMP-14 (residue 114-320); hexahistidine (C); made in house; host or cells: E. coli periplasm
Experimental: as §1

[11] = biological target: T5, cdMMP-14; test: Bio-layer interferometry on cdMMP-14; assay type: binding; design: human MMP-14 (residue 114-320); hexahistidine (C); made in house; host or cells: E. coli periplasm

B1: Fab LH6: anti-MMP-12 antibody clone; VL SEQ ID NO:118, VH SEQ ID NO:120, CDR-H3 SEQ ID NO:123 (antibody, V domains shown)
VH: EVQLVESGGGLVQPGGSLRLSCAASGFNLSYSYMHWVRQAPGKGLEWVASIYPSYGSTYYADSVKGRFTISADTSKNTAYLQMNSLRAEDTAVYYCARDLEESLPKRARTAVSKELESVPYVMDYWGQGTLVTVSSAS
VL: DIQMTQSPSSLSASVGDRVTITCRASQSVSSAVAWYQQKPGKAPKLLIYSASSLYSGVPSRFSGSRSGTDFTLTISSLQPEDFATYYCQQSSHYASPPITFGQGTKVEIKR
In the case of B1, the “Type of inhibition (Lineweaver-Burk)” value [1] is reported as “substrate competitive manner”, the “Inhibition FRET peptide” value [2] is reported as “non-” and the “Fibronectin remaining after cdMMP-12 wt hydrolysis” value ([3]; 6 μM Fab, 350 nM wt cdMMP-12, 200 nM fibronectin, 37° C.) is reported as “significant amounts of fibronectin remained”. For the same molecule, the “Inhibition Fibronectin IC50” value ([3]; toward cdMMP-12 wild type, 200 nM enzyme, 200 nM fibronectin) was “Inhib”, the “Inhibition of MMP-1 (selectivity)” value [4] was “did not inhibit and non-” and the “Inhibition of MMP-7 (selectivity)” value [5] was “did not inhibit and non-”. The “K1 fold, cdMMP-9 compared with cdMMP-12 mutant D4” value [6] was “(16-fold)”, the Ki ([6]; FRET peptide, read-out: K1 toward cdMMP-9) was 1500 nM and the “KD fold, cdMMP-9 compared with cdMMP-12 wt” value [7] was “(2.2-fold),”. For the same molecule, the Kd ([7]; read-out: KD toward cdMMP-9) was 950 nM, the “Degradation of Fab by cdMMP-12 D4” value [8] was “no significant degradation” and the “Fab remained intact after exposure to cdMMP-12 wt” value [9] was 56%. The “K1 fold, cdMMP-14 compared with cdMMP-12 mutant D4” value [10] was “(52-fold)” and the “KD fold, cdMMP-14 compared with cdMMP-12 wt” value [11] was “(1.1-fold),”.
